From patent publication US20200199241A1 (Chugai, published 2020) come the findings set out here.

B1: IgG1-F666 (antibody)
heavy: QVQLQESGPGLVKPSETLSLTCAVSGHSISHDHAWSWVRQPPGEGLEWIGFISYSGITNYNPSLQGRVTISRDNSKNTLYLQMNSLRAEDTAVYYCARSLARTTAMDYWGEGTLVTVSSASTKGPSVFPLAPSSKSTSGGTAALGCLVKDYFPEPVTVSWNSGALTSGVHTFPAVLQSSGLYSLSSVVTVPSSSLGTQTYICNVNHKPSNTKVDKKVEPKSCDKTHTCPPCPAPELLGGPSVFLFPPKPKDTLYISRTPEVTCVVVDVSHEDPEVKFNWYVDGVEVHFAKTKPREEQYNSTYRVVSVLTPLHQDWLNGKEYKCKVSNKALPAPIEKTISKAKGQPREPQVYTLPPSRDELTKNQVSLTCLVKGFYPSDIAVEWESNGQPENNYKTTPPVLDSDGSFFLYSKLTVDKSRWQQGNVFSCSVMHEALHYHYTQKSLSLSP
light: not shown
notes: EU numbering; copies: 2 + 2
B2: IgG1-F668 (antibody)
heavy: QVQLQESGPGLVKPSETLSLTCAVSGHSISHDHAWSWVRQPPGEGLEWIGFISYSGITNYNPSLQGRVTISRDNSKNTLYLQMNSLRAEDTAVYYCARSLARTTAMDYWGEGTLVTVSSASTKGPSVFPLAPSSKSTSGGTAALGCLVKDYFPEPVTVSWNSGALTSGVHTFPAVLQSSGLYSLSSVVTVPSSSLGTQTYICNVNHKPSNTKVDKKVEPKSCDKTHTCPPCPAPELLGGPSVFLFPPKPKDTLYISRTPEVTCVVVDVSHEDPEVKFNWYVDGVEVHHAKTKPREEQYNSTYRVVSVLTPLHQDWLNGKEYKCKVSNKALPAPIEKTISKAKGQPREPQVYTLPPSRDELTKNQVSLTCLVKGFYPSDIAVEWESNGQPENNYKTTPPVLDSDGSFFLYSKLTVDKSRWQQGNVFSCSVMHEALHYHYTQKSLSLSP
light: not shown
notes: EU numbering; copies: 2 + 2
B3: IgG1-F669 (antibody)
heavy: QVQLQESGPGLVKPSETLSLTCAVSGHSISHDHAWSWVRQPPGEGLEWIGFISYSGITNYNPSLQGRVTISRDNSKNTLYLQMNSLRAEDTAVYYCARSLARTTAMDYWGEGTLVTVSSASTKGPSVFPLAPSSKSTSGGTAALGCLVKDYFPEPVTVSWNSGALTSGVHTFPAVLQSSGLYSLSSVVTVPSSSLGTQTYICNVNHKPSNTKVDKKVEPKSCDKTHTCPPCPAPELLGGPSVFLFPPKPKDTLYISRTPEVTCVVVDVSHEDPEVKFNWYVDGVEVHIAKTKPREEQYNSTYRVVSVLTPLHQDWLNGKEYKCKVSNKALPAPIEKTISKAKGQPREPQVYTLPPSRDELTKNQVSLTCLVKGFYPSDIAVEWESNGQPENNYKTTPPVLDSDGSFFLYSKLTVDKSRWQQGNVFSCSVMHEALHYHYTQKSLSLSP
light: not shown
notes: EU numbering; copies: 2 + 2
B4: IgG1-F667 (antibody)
heavy: QVQLQESGPGLVKPSETLSLTCAVSGHSISHDHAWSWVRQPPGEGLEWIGFISYSGITNYNPSLQGRVTISRDNSKNTLYLQMNSLRAEDTAVYYCARSLARTTAMDYWGEGTLVTVSSASTKGPSVFPLAPSSKSTSGGTAALGCLVKDYFPEPVTVSWNSGALTSGVHTFPAVLQSSGLYSLSSVVTVPSSSLGTQTYICNVNHKPSNTKVDKKVEPKSCDKTHTCPPCPAPELLGGPSVFLFPPKPKDTLYISRTPEVTCVVVDVSHEDPEVKFNWYVDGVEVHGAKTKPREEQYNSTYRVVSVLTPLHQDWLNGKEYKCKVSNKALPAPIEKTISKAKGQPREPQVYTLPPSRDELTKNQVSLTCLVKGFYPSDIAVEWESNGQPENNYKTTPPVLDSDGSFFLYSKLTVDKSRWQQGNVFSCSVMHEALHYHYTQKSLSLSP
light: not shown
notes: EU numbering; copies: 2 + 2
B5: IgG1-F670 (antibody)
heavy: QVQLQESGPGLVKPSETLSLTCAVSGHSISHDHAWSWVRQPPGEGLEWIGFISYSGITNYNPSLQGRVTISRDNSKNTLYLQMNSLRAEDTAVYYCARSLARTTAMDYWGEGTLVTVSSASTKGPSVFPLAPSSKSTSGGTAALGCLVKDYFPEPVTVSWNSGALTSGVHTFPAVLQSSGLYSLSSVVTVPSSSLGTQTYICNVNHKPSNTKVDKKVEPKSCDKTHTCPPCPAPELLGGPSVFLFPPKPKDTLYISRTPEVTCVVVDVSHEDPEVKFNWYVDGVEVHKAKTKPREEQYNSTYRVVSVLTPLHQDWLNGKEYKCKVSNKALPAPIEKTISKAKGQPREPQVYTLPPSRDELTKNQVSLTCLVKGFYPSDIAVEWESNGQPENNYKTTPPVLDSDGSFFLYSKLTVDKSRWQQGNVFSCSVMHEALHYHYTQKSLSLSP
light: not shown
notes: EU numbering; copies: 2 + 2

The target in this experiment is T1, human FcRn (soluble human FcRn complexed with β2-microglobulin) (human, UniProt P61769 21-119, limits assumed).
T1 construct: also called hFcRn
T1 sequence (chain, as listed by the source limits assumed, chain 1 of 2): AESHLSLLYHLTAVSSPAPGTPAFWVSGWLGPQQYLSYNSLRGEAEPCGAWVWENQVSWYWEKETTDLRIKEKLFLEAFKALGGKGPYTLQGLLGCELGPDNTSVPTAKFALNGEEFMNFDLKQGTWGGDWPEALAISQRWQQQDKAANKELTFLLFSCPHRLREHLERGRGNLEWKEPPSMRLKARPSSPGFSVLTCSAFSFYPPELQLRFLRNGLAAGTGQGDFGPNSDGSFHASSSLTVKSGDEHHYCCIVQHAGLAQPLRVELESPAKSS
T1 sequence (P61769 21-119 limits assumed, chain 2 of 2): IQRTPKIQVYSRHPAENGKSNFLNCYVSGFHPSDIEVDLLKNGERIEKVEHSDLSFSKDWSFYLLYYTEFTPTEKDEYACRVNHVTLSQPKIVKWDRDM
Kind of experiment: SPR, pH 7.0.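 Also: antibodies captured on a Protein L sensor chip with human FcRn injected as analyte, KD calculated from fitted association and dissociation rate constants.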
A word on the Kd: it is the equilibrium constant for the complex coming apart. Higher therefore signals lower affinity. For B1, the affinity, expressed as Kd, was 21 nM.
The figure for B2 is 40 nM; for B3 it is 35 nM; for B4 it is 30 nM.
The figure for B5 is 210 nM.
